Experimental findings from patent US20260274985A1 (MYTHIC THERAPEUTICS, published 2026) are described below.

Assay [1] deals with T1, Human TROP2 Protein, His Tag (Acro Biosystems) (human, UniProt P09758 27-274).
T1 construct: Bought antigen used at 50 nM in the Octet screen; also called TACSTD2; not shown: His tag
T1 sequence (looked up): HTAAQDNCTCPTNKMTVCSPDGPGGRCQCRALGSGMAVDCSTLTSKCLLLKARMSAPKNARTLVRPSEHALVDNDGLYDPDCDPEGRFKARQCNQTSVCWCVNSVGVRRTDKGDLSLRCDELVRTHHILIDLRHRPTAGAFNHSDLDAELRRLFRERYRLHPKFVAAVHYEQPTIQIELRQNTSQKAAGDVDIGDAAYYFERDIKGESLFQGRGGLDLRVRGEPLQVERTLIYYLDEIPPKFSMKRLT
In words: Octet BLI, IgG on anti-human Fc sensor; 3 = No binding. In general terms: In BLI a coated tip is dipped into the sample, and binding shifts an interference pattern.

Assay [2] has as its target T2, Human TROP2 Protein, His Tag (Acro Biosystems) (human, UniProt P09758 27-274).
T2 construct: Bought protein; also called TACSTD2; not shown: His tag
T2 sequence: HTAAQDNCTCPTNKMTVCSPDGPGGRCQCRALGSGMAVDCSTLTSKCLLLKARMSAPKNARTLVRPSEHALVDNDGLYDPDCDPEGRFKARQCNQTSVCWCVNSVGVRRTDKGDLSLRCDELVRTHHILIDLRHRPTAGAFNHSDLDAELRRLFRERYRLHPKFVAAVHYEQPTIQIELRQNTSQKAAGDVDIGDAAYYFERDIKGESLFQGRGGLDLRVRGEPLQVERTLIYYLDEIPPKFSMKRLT
In words: BLI (Octet), antibody on anti-human Fc sensor, 50 nM human TROP2-His, dissociation at pH 7.4 or 5.4; grade 2 = No change vs parent.

The target of assay [3] is T2, Human TROP2 Protein, His Tag (Acro …). The assay can be described thus: BLI (Octet), antibody on anti-human Fc sensor, 50 nM human TROP2-His, dissociation at pH 7.4 or 5.4; grade 1 = pH dependent.
The target in assay [4] is T3, Human TROP2 Protein, His Tag (Acro Biosystems) (human, UniProt P09758 27-274).
T3 construct: Bought protein; not shown: His tag
T3 sequence (looked up): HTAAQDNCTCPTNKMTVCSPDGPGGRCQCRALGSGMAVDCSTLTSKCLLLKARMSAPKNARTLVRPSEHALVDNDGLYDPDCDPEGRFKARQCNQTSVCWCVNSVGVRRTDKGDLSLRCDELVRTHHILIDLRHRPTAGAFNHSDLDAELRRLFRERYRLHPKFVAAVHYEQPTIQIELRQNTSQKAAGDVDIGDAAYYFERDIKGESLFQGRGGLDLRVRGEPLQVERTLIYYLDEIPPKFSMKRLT
The assay can be described thus: BLI (Octet), Ab on anti-human Fc sensor, 50 nM TROP2-His; 2 = No change vs parent. As for the experimental part:
The resulting diluted supernatants were then captured on an anti-human Fc sensor (Forte Bio). A baseline was established using 1×PBST (50 mM Potassium Phosphate Buffer+150 mM NaCl+0.05% Tween 20) pH 7.4, and the sensor was associated with 50 nM of TROP2 (Human TROP2 Protein, His Tag, Acro Biosystems) in 1×PBST pH 7.4 for 120 sec to generate an association curve. In the dissociation phase, the antibody-antigen complex on the sensor was exposed to 1×PBST pH 7.4 or pH 5.4, for 300 sec. Association and dissociation phase curves were examined for the starting ABPC antibody (with no substitutions) and each corresponding antibody variant at pH 5.4 and pH 7.4 to inform on two criteria: a) enhanced dissociation (i.e., higher koff values) at pH 5.4 due to histidine or alanine substitution compared to the starting ABPC, (with no substitutions), and b) reduced dissociation at pH 7.4 (i.e., lower koff values) compared to pH 5.4 in the antibody variant itself and with the starting ABPC (with no substitutions). […] It was also noted that while some mutations obliterated TROP2 binding, others were tolerated with little or n change in TROP2 binding kinetics.
For each such table, the “MYT #” provides an identifier for each antigen binding protein (ABP), and the values from each column (reading along each row) provide characteristics and data associated with each ABP. […]

The target of assay [5] is T4, Human TROP2 Protein, His Tag (Acro Biosystems) (human, UniProt P09758 27-274).
T4 construct: not shown: His tag
T4 sequence (looked up): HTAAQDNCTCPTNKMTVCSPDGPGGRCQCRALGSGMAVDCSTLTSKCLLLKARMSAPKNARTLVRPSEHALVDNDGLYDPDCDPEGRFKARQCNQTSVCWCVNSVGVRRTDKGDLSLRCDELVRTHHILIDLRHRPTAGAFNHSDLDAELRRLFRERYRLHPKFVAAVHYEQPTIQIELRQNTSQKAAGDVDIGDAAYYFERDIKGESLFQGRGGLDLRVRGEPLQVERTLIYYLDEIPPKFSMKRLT
In words: Octet BLI, IgG on anti-human Fc sensor; 3 = No binding.

In assay [6] the target is T5, Human TROP2 Protein, His Tag (Acro Biosystems) (human, UniProt P09758 27-274).
T5 construct: also called TACSTD2; not shown: His tag
T5 sequence (looked up): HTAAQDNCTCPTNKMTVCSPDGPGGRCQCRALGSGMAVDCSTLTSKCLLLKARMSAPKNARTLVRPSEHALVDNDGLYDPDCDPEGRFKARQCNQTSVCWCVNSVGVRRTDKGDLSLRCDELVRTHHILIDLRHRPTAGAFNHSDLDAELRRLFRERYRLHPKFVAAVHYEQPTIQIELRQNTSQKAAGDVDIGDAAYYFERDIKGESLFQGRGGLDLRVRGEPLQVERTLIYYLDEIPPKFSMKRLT
The assay can be described thus: BLI (Octet), IgG on anti-human Fc sensor, 50 nM TROP2-His; 1 = pH dependent. As for the experimental part: After allowing for four days of protein expression, cell culture supernatants were collected, quantified by SDS-PAGE analysis (DNS), and the pH dependence of the variant was evaluated using biolayer interferometry (BLI) on an Octet RED 96e instrument. Briefly, cell culture supernatants were diluted based on qualitative expression level of the variant determined by visual examination of SDS-PAGE gels, 5 μL of cell culture supernatant was diluted into 195 μL of 1×PBST, pH 7.4 for high expressors, 25 μL of cell culture supernatant was diluted into 175 μL of 1×PBST, pH 7.4 for medium expressors and 100 μL of cell culture supernatant was diluted into 100 μL of 1×PBST, pH 7.4 for low expressors for loading onto the sensor tips. The resulting diluted supernatants were then captured on an anti-human Fc sensor (Forte Bio). A baseline was established using 1×PBST (50 mM Potassium Phosphate Buffer+150 mM NaCl+0.05% Tween 20) pH 7.4, and the sensor was associated with 50 nM of TROP2 (Human TROP2 Protein, His Tag, Acro Biosystems) in 1×PBST pH 7.4 for 120 sec to generate an association curve. In the dissociation phase, the antibody-antigen complex on the sensor was exposed to 1×PBST pH 7.4 or pH 5.4, for 300 sec. […]

B1: MYT11717 (antibody, V domains shown)
VH: QVQLQESGPGLVKPSETLSLTCTVSGGSISSYGVHWIRQPPGKGLEWIGVIHTSGVTDYNSALMGRVTISVDTSKNQFSLKLSSVTAADTAVYYCARDGDYDRYTMDYWGQGTLVTVSS
VL: DIVMTQSPDSLAVSLGERATINCRASKSVSTSGYSYMHWYQQKPGQPPKLLIYLASNLESGVPDRFSGSGSGTDFTLTISSLQAEDVAVYYCQHSRELPYTFGQGTKLEIK
notes: hu7E6SVG variant, His at HCV position 52 (H2 03); screened as IgG in Expi293 supernatant
As to B1, the binding result in assay [1] is “no binding (tested: 50 nM)”.

B2: MYT12452 (hu7E6SVG variant, LCV substitutions at 94, 101 (Ala at 94)) (antibody, V domains shown)
VH: QVQLQESGPGLVKPSETLSLTCTVSGGSISSYGVHWIRQPPGKGLEWIGVIWTSGVTDYNSALMGRVTISVDTSKNQFSLKLSSVTAADTAVYYCARDGDYDRYTMDYWGQGTLVTVSS
VL: DIVMTQSPDSLAVSLGERATINCRASKSVSTSGYSYMHWYQQKPGQPPKLLIYLASNLESGVPDRFSGSGSGTDFTLTISSLQAEDVAVYYCQASRELPYHFGQGTKLEIK
notes: Full IgG in Expi293 supernatant
In the case of B2, in assay [2], the binding result is “binds”.

B3: MYT12470 (hu7E6SVG variant, LCV substitutions at 93, 94, 97 (Ala at 94)) (antibody, V domains shown)
VH: QVQLQESGPGLVKPSETLSLTCTVSGGSISSYGVHWIRQPPGKGLEWIGVIWTSGVTDYNSALMGRVTISVDTSKNQFSLKLSSVTAADTAVYYCARDGDYDRYTMDYWGQGTLVTVSS
VL: DIVMTQSPDSLAVSLGERATINCRASKSVSTSGYSYMHWYQQKPGQPPKLLIYLASNLESGVPDRFSGSGSGTDFTLTISSLQAEDVAVYYCHASRHLPYTFGQGTKLEIK
notes: as for B2
As to B3, the binding result in assay [3] is “binds”.

B4: MYT11583 (antibody, V domains shown)
VH: QVQLQQSGSELKKPGASVKVSCKASGYTFTNYGMNWVKQAPGQGLKWMGWINTYTHEPTYTDDFKGRFAFSLDTSVSTAYLQISSLKADDTAVYFCARGGFGSSYWYFDVWGQGSLVTVSS
VL: DIQLTQSPSSLSASVGDRVSITCKASQDVSIAVAWYQQKPGKAPKLLIYSASYRYTGVPDRFSGSGSGTDFTLTISSLQPEDFAVYYCQQHYITPLTFGAGTKVEIK
notes: Sacituzumab variant, His at HCV position 56 (H2 07)
Regarding B4, the binding result in assay [4] is “binds”.

B5: MYT12395 (antibody, V domains shown)
VH: QVQLVQSGAEVKKPGASVKVSCKASGYTFTTAGMQWVRQAPGQGLEWMGWINTHSGVPKYAEDFKGRVTISADTSTSTAYLQLSSLKSEDTAVYYCARSGFGSSYWYFDVWGQGTLVTVSS
VL: DIQMTQSPSSLSASVGDRVTITCKASQDVSTAVAWYQQKPGKAPKLLIYSAHYRYTGVPSRFSGSGSGTDFTLTISSLQPEDFAVYYCHQHYITPLTFGQGTKLEIK
notes: datopotamab VL 52, 89 substituted
Take B5: the binding result in assay [5] is “no binding (tested: 50 nM TROP2)”.

B6: MYT13385 (antibody, V domains shown)
VH: QVQLQQSGSELKKPGASVKVSCKASGYTFTNYGMNWVKQAPGQGLKWMGWINTYTGEPTYTHDFKGRFAFSLDTSVSTAYLQISSLKADDTAVYFCARGGFGSSYWYFDVWGQGSLVTVSS
VL: DIQLTQSPSSLSASVGDRVSITCKASQDVHIAVAWYQQKPGKAPKLLIYSAHYRYTGVPDRFSGSGSGTDFTLTISSLQPEDFAVYYCQQHYITPLTFGAGTKVEIK
notes: Sacituzumab HC-LC pairing variant
Take B6: the binding result in assay [6] is “binds”.
